# Laboratory results reported in paper PMC10993188, “RAD51 separation of function mutation disables replication fork maintenance but preserves DSB repair”.
# What was measured:
# [1] = biological target: T1, RAD51 S181P (SP) (Homo sapiens, UniProt Q06609 1-339, S181P); experiment: BLI; 2 mM ATP, 5 mM Mg2+; 2 uM RAD51; dissociated by GST-BRC4; EMSA: 10 mM Tris-HCl pH 7.5, 10 mM KCl, 1 mM MgCl2, 1 mM ATP, 1 mM DTT, 25 C, 25 nM DNA, 1.1 uM RAD51; BLI: 50 mM Tris-HCl pH 7.5, 50 mM KCl, 5 mM MgCl2, 2 mM ATP, 0.05% Tween 20, 15 nM DNA; stopped-flow buffer not in material; settings: protein: recombinant; chain copies: 10; label: 3' biotin; single strand
# [2] = biological target: T2, RAD51 WT (Homo sapiens, UniProt Q06609 1-339); experiment: as above; settings: protein: recombinant; chain copies: 10; label: 3' biotin; single strand
# [3] = biological target: T3, RAD51 WT;BRCA2 Ex27 peptide (TR2) (Homo sapiens;Homo sapiens, UniProt Q06609;P51587 1-339;, |); experiment: stopped-flow PIFE; Ex27 increases amplitude and decreases binding rate; EMSA: 10 mM Tris-HCl pH 7.5, 10 mM KCl, 1 mM MgCl2, 1 mM ATP, 1 mM DTT, 25 C, 25 nM DNA, 1.1 uM RAD51; BLI: 50 mM Tris-HCl pH 7.5, 50 mM KCl, 5 mM MgCl2, 2 mM ATP, 0.05% Tween 20, 15 nM DNA; stopped-flow buffer not in material; settings: tags: ;; label: 5' Cy3; single strand
# [4] = biological target: T1, RAD51 S181P (SP); experiment: stopped-flow PIFE; no Ex27; similar mechanism to WT, slower assembly at suboptimal concentrations; EMSA: 10 mM Tris-HCl pH 7.5, 10 mM KCl, 1 mM MgCl2, 1 mM ATP, 1 mM DTT, 25 C, 25 nM DNA, 1.1 uM RAD51; BLI: 50 mM Tris-HCl pH 7.5, 50 mM KCl, 5 mM MgCl2, 2 mM ATP, 0.05% Tween 20, 15 nM DNA; stopped-flow buffer not in material; settings: protein: recombinant; chain copies: 10; label: 5' Cy3; single strand
# [5] = biological target: T2, RAD51 WT; experiment: stopped-flow PIFE; no Ex27; EMSA: 10 mM Tris-HCl pH 7.5, 10 mM KCl, 1 mM MgCl2, 1 mM ATP, 1 mM DTT, 25 C, 25 nM DNA, 1.1 uM RAD51; BLI: 50 mM Tris-HCl pH 7.5, 50 mM KCl, 5 mM MgCl2, 2 mM ATP, 0.05% Tween 20, 15 nM DNA; stopped-flow buffer not in material; settings: protein: recombinant; chain copies: 10; label: 5' Cy3; single strand
# [6] = biological target: T2, RAD51 WT; experiment: EMSA; 1 mM ATP, 1 mM Mg2+; no Ex27; complex disassembled by GST-BRC3; EMSA: 10 mM Tris-HCl pH 7.5, 10 mM KCl, 1 mM MgCl2, 1 mM ATP, 1 mM DTT, 25 C, 25 nM DNA, 1.1 uM RAD51; BLI: 50 mM Tris-HCl pH 7.5, 50 mM KCl, 5 mM MgCl2, 2 mM ATP, 0.05% Tween 20, 15 nM DNA; stopped-flow buffer not in material; settings: protein: recombinant; chain copies: 10; label: 5' FAM (FITC); single strand
# [7] = biological target: T3, RAD51 WT;BRCA2 Ex27 peptide (TR2); experiment: EMSA super-shift; 5.7 uM Ex27, 1 mM ATP, 1 mM Mg2+; almost completely resistant to GST-BRC3; EMSA: 10 mM Tris-HCl pH 7.5, 10 mM KCl, 1 mM MgCl2, 1 mM ATP, 1 mM DTT, 25 C, 25 nM DNA, 1.1 uM RAD51; BLI: 50 mM Tris-HCl pH 7.5, 50 mM KCl, 5 mM MgCl2, 2 mM ATP, 0.05% Tween 20, 15 nM DNA; stopped-flow buffer not in material; settings: tags: ;; label: 5' FAM (FITC); single strand
# T2 sequence (Q06609 whole entry): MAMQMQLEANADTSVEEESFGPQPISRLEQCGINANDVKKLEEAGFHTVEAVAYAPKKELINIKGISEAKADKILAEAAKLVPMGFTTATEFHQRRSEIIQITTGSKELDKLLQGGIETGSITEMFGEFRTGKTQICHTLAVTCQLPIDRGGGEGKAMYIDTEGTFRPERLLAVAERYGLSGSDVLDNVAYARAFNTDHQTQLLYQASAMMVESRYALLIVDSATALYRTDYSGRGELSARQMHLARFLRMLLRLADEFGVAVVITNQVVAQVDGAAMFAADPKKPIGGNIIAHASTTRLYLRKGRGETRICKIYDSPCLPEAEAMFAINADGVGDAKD
# T1 sequence (Q06609 whole entry S181P): as the sequence (Q06609 whole entry) above, with S181P counted along it
binder,measurement,setting,value
TTTTTTTTTTTTTTTTTTTTTTTTTTTTTTTTTTTTTTTTTTT (ssDNA) [oligo-dT 43-mer],binding result,[1],binds
same,binding result,[2],binds
Cy3-(dT)79 (ssDNA) DNA: TTTTTTTTTTTTTTTTTTTTTTTTTTTTTTTTTTTTTTTTTTTTTTTTTTTTTTTTTTTTTTTTTTTTTTTTTTTTTTT,binding result,[3],binds
same,binding result,[4],binds
same,binding result,[5],binds
5'FITC-90mer ssDNA (ssDNA) DNA: AAATCAATCTAAAGTATATATGAGTAAACTTGGTCTGACAGTTACCAATGCTTAATCAGTGAGGCACCTATCTCAGCGATCTGTCTATTT,binding result,[6],binds
same,binding result,[7],binds
